Consider 12 molecules from PMC5663475, “SAV1 promotes Hippo kinase activation through antagonizing the PP2A phosphatase STRIPAK” (eLife, 2017).

One test concerns MCF10A cells. Put plainly: Immunoblot of Hippo pathway phosphorylation after latrunculin B treatment. Particulars: LatB 1 μg/ml, 1 hr. It is filed as cell-based, human. On the procedure: 293FT cells (Thermo Scientific, catalogue #R70007; not independently authenticated) were cultured in DMEM supplemented with 10% fetal bovine serum, 2 mM L-glutamine and 1% penicillin/streptomycin. MCF10A cells (ATCC, catalogue #CRL-10317; not independently authenticated) were cultured in DMEM/F12 containing 5% horse serum, 20 ng/ml EGF, 0.5 μg/ml hydrocortisone, 100 ng/ml cholera toxin, 10 μg/ml insulin and 1% penicillin/streptomycin. All cells were incubated at 37°C in a humidified 5% CO2 atmosphere. All cell lines were checked by 4’,6-diamidino-2-phenylindole (DAPI) staining to ascertain that they were free of mycoplasma contamination. Transient transfection of 293FT cells was performed with Lipojet (Signagen). Cells were collected for further experiments after 24 hr. siRNA transfection was performed with Lipofectamine RNAiMAX (Invitrogen, Waltham, MA) according to manufacturer’s instructions. The following siRNAs were synthesized by Dharmacon and used in this study: siSLMAP #1, […]dTdT; siSLMAP #2, […]dTdT; siSTRIP1, […]dTdT.
Rabbit polyclonal MST2 phospho-T336 antibody was raised against the MST2 phospho-peptide with the sequence of ESVGpTMRATC at an on-campus facility. Generation of the MST2 phospho-T378 antibody was described previously ([Ni et al., 2015]). […] For immunoblotting, cell lysates and immunoprecipitates were analyzed by standard immunoblotting. The membranes were scanned and band intensities were quantified by the Odyssey Infrared Imaging System (LI-COR). […] We quantified phospho- and total protein bands in a set of three independent experiments. […] The ratios of normalized phospho-proteins versus normalized total proteins were calculated and plotted. […]
In general terms: A western blot detects proteins with antibodies after separation by electrophoresis.

Test [1] deals with T1, SLMAP FHA (residues 1–140) (human, UniProt Q14BN4 1-140).
T1 construct: SLMAP, human, FHA domain, residues 1-140; also called SLMAP FHA domain; apo-SLMAP FHA; source: E. coli BL21 (DE3)-T1R, purified (glutathione-Sepharose, TEV cleavage, Superdex 75); not shown: GST, N-terminal, cleaved
T1 sequence (looked up): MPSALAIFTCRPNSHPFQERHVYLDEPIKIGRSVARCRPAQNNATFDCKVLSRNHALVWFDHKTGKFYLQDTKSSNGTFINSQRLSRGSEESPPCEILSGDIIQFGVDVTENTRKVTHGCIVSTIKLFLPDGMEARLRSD
Put plainly: ITC; MicroCal iTC200, 20 °C; 50 µM protein in the cell titrated with 500 µM phospho-peptide; 20 mM Tris pH 8.0, 50 mM NaCl (5% DMSO for pT325-MST2 320-329); A + B <-> AB model. Particulars: both partners purified. (In general: ITC needs no label: the signal is the heat of the interaction.)

A further test has as its target T2, SLMAP FHA/R32A (human, UniProt Q14BN4 1-140, R32A).
T2 construct: SLMAP, human, FHA domain, residues 1-140, R32A; also called SLMAP FHA/R32A mutant; source: E. coli BL21 (DE3)-T1R, purified (glutathione-Sepharose, TEV cleavage, Superdex 75); not shown: GST, N-terminal, cleaved
T2 sequence (looked up): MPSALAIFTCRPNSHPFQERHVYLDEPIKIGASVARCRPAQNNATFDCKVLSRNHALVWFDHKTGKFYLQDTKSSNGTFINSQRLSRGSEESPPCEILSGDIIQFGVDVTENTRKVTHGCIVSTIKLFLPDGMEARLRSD
The test is described as above. The settings on record: both partners purified.

The target of a further test is MOB1^33-216 (human) (UniProt Q9H8S9). The test is described as above.
A further test deals with MST2 SARAH. The experiment in a line: In vitro pull-down of 35S-labeled SAV1 SARAH by GST-MST2 SARAH. The settings on record: GST-MST2 SARAH pull-down of in vitro translated 35S-labeled Myc-SAV1 SARAH (residues 321–383), SDS-PAGE, autoradiography. It is filed as binding, human. On the procedure: To assay the heterodimerization of SARAH domains between MST2 and SAV1, Myc-tagged SAV1 SARAH (residues 321–383) and the corresponding mutants were in vitro translated in reticulocyte lysate in the presence of ^35S-methionine according to the manufacturer’s protocol (Pierce). Purified GST-MST2 SARAH (residues 430–491) fusion protein was bound to glutathione-Sepharose beads and incubated with ^35S-labeled SAV1 SARAH WT and mutants. The beads were washed three times with TBS containing 0.05% (v/v) Tween. The proteins retained on the beads were analyzed by SDS-PAGE followed by autoradiography.

The next test deals with MST2. Put plainly: MST2-SAV1 autophosphorylation (pT180). The format is biochemical, human. The settings on record: 2.5 µM MST2-SAV1 complex, dephosphorylated by 0.5 µM PP2A A-C, then 5 µM okadaic acid; 2 mM ATP, anti-pT180 blot; at least two independent experiments. Here is the method:
For assaying MST2-SAV1 autophosphorylation, 2.5 µM MST2-SAV1-ΔN198 or MST2-SAV1-ΔN268 was dephosphorylated by 0.5 µM PP2A A-C core complex for 30 min at room temperature. Okadaic acid was then added to a final concentration of 5 µM and the reaction mixture was incubated on ice for another 30 min. The reaction mixture was diluted by a ratio of 1:5 at room temperature with a kinase reaction buffer containing 50 mM Tris (pH 7.5), 150 mM NaCl, 5 mM MgCl2, 2 mM ATP, and 1 mM DTT. At different time intervals, autophosphorylation was terminated by adding 2X SDS loading buffer and boiling for 5 min in 100 °C water bath. All samples were separated by SDS-PAGE and blotted by a specific antibody against pT180 of MST2.

Non-standard residues stand in square brackets, D forms with d. No end group written: not given here. pT = C[C@@H](OP(=O)(O)O)[C@H](N)C(=O)O

For `C/C1=C/C(=O)O[C@@H]2C[C@@H](CC[C@H](C)/C=C\CC1)O[C@@](O)([C@@H]1CSC(=O)N1)C2` [LatB, Latrunculin B], in the test on MCF10A cells, the “MOB1 T35 phosphorylation” value is “induced”; the “MST1/2 T-loop phosphorylation” value is reported as “induced”; the “downstream phosphorylation of LATS1/2 and YAP” value is given as “induced”.

B1: pT378-MST2^373-382 (peptide)
peptide: EEEDG[pT]MKRN
notes: MST2, human, linker residues 373-382; also called pMST2; source: synthetic peptide
For B1, the Kd in test [1] came out at 160 nM; with SLMAP FHA/R32A, 18800 nM. Besides, the dH was -9 kcal/mol in test [1], -6.7 kcal/mol with SLMAP FHA/R32A and -4 kcal/mol with MOB1^33-216 (human).

B2: pT336-MST2^331-340 (peptide)
peptide: VESVG[pT]MRAT
notes: MST2, human, linker residues 331-340; source: synthetic peptide
Take B2: in test [1], the Kd amounted to 1140 nM and the dH was -8.2 kcal/mol.

B3: pT325-MST2^320-329 (peptide)
peptide: ELDSH[pT]MVKT
notes: MST2, human, linker residues 320-329; source: synthetic peptide
Regarding B3, in test [1], the dissociation constant (Kd) was 392 nM and the dH is -10.3 kcal/mol.

B4: SAV1 E346A: SAV1 SARAH (residues 321–383) mutant (protein)
chain: ILKWELFQLADLDTYQGMLKLLFMKALEQIVKMYEAYRQALLTELENRKQRQQWYAQQHGKNF
modifications: not fully specified (N-terminus); also: 35S-methionine labelled, Myc tag, end not given here
notes: SAV1 SARAH (residues 321–383) mutant
For the molecule B4, in the test on MST2 SARAH, the “binding of SAV1 SARAH mutant to MST2” value is recorded as “completely lost the binding to MST2”.

B5: L365A: SAV1 SARAH (residues 321–383) mutant (protein, UniProt Q9H4B6 321-383, looked up, variant L365A)
chain: ILKWELFQLADLDTYQGMLKLLFMKELEQIVKMYEAYRQALLTEAENRKQRQQWYAQQHGKNF
modifications: SARAH domain
notes: as for B4
With B5, the “binding of SAV1 SARAH mutant to MST2” value in the test with MST2 SARAH is given as “completely lost the binding to MST2”.

B6: I350A: SAV1 SARAH (residues 321–383) mutant (protein, UniProt Q9H4B6 321-383, looked up, variant I350A)
chain: ILKWELFQLADLDTYQGMLKLLFMKELEQAVKMYEAYRQALLTELENRKQRQQWYAQQHGKNF
modifications: SARAH domain
notes: as for B4
As for B6, the “binding of SAV1 SARAH mutant to MST2” value in the test on MST2 SARAH is “completely lost the binding to MST2”.

B7: Y357A: SAV1 SARAH (residues 321–383) mutant (protein, UniProt Q9H4B6 321-383, looked up, variant Y357A)
chain: ILKWELFQLADLDTYQGMLKLLFMKELEQIVKMYEAARQALLTELENRKQRQQWYAQQHGKNF
modifications: SARAH domain
notes: as for B4
Turning to B7, the “binding of SAV1 SARAH mutant to MST2” value in the test on MST2 SARAH is “completely lost the binding to MST2”.

B8: L361A: SAV1 SARAH (residues 321–383) mutant (protein, UniProt Q9H4B6 321-383, looked up, variant L361A)
chain: ILKWELFQLADLDTYQGMLKLLFMKELEQIVKMYEAYRQAALTELENRKQRQQWYAQQHGKNF
modifications: SARAH domain
notes: as for B4
For the molecule B8, in the test on MST2 SARAH, the “binding of SAV1 SARAH mutant to MST2” value is given as “completely lost the binding to MST2”.

B9: R368A: SAV1 SARAH (residues 321–383) mutant (protein, UniProt Q9H4B6 321-383, looked up, variant R368A)
chain: ILKWELFQLADLDTYQGMLKLLFMKELEQIVKMYEAYRQALLTELENAKQRQQWYAQQHGKNF
modifications: SARAH domain
notes: as for B4
B9: the “binding of SAV1 SARAH mutant to MST2” value with MST2 SARAH was “completely lost the binding to MST2”.

B10: SAV1 ∆N268: SAV1 SARAH alone (protein, UniProt Q9H4B6 269-383, looked up, fragment)
chain: SVPRYDQPPPVTYQPQQTERNQSLLVPANPYHTAEIPDWLQVYARAPVKYDHILKWELFQLADLDTYQGMLKLLFMKELEQIVKMYEAYRQALLTELENRKQRQQWYAQQHGKNF
B10: the “MST2 activation (T180 autophosphorylation) in vitro” value in the test with MST2 is recorded as “blocked MST2 activation in vitro”.

B11: pT378-MST2^371-401 (peptide)
peptide: DEEEEDG[pT]MKRNATSPQVQRPSFMDYFDKQD
notes: MST2, human, linker residues 371-401; source: synthetic peptide
B11: in test [1], the Kd is 393 nM and the dH was -9.5 kcal/mol. In the test with MOB1^33-216 (human), the dH is -13.5 kcal/mol.

Usually Kd stands for the constant that tells how readily two partners part at equilibrium.
